The record followed here is paper PMC6829621, “An RBPJ-Drosophila Model Reveals Dependence of RBPJ Protein Stability on the Formation of Transcription–Regulator Complexes” (Cells, 2019).

This experiment has as its target T1, full-length Drosophila Hairless (Drosophila melanogaster, UniProt Q02308 1-1077).
T1 construct: Hairless (H), Drosophila melanogaster, full length (pEG-HFL); also called pEG-HFL; source: yeast two-hybrid fusion (EGY48 yeast, pEG202 vector)
T1 sequence (looked up): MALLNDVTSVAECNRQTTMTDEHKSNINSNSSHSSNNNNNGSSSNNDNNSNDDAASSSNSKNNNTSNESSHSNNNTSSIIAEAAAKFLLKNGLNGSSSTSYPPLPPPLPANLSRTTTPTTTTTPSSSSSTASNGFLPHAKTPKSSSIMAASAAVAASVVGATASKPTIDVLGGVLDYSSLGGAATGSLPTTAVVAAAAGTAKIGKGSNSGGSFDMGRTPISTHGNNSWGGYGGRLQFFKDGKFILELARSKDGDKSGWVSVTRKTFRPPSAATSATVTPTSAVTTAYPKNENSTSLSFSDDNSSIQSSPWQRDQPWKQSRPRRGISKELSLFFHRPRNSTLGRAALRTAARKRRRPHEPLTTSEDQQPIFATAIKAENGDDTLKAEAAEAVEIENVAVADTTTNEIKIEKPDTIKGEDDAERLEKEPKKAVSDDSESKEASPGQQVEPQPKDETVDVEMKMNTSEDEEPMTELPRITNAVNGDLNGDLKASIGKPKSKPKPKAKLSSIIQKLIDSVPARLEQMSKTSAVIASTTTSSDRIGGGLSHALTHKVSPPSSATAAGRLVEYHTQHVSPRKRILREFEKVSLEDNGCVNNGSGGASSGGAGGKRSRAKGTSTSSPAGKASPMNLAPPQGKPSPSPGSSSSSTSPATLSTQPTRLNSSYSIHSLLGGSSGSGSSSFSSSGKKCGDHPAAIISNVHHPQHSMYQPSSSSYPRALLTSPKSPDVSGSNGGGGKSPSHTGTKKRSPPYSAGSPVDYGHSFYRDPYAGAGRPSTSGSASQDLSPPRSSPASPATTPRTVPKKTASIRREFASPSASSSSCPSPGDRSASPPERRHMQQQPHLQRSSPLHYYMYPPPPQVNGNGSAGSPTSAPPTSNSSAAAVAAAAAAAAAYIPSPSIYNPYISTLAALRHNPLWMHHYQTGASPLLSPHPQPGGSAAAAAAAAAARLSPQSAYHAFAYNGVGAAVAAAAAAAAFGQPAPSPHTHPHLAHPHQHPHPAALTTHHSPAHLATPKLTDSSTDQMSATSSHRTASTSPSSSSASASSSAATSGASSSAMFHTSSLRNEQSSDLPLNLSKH
In words: two-hybrid; Golemis-Brent system in EGY48 yeast; H fused to LexA DNA-binding domain in pEG202, CSL variants fused to B42-AD in pJG4-5; lacZ reporter pSH18-34; qualitative, and quantified in Miller Units (six clones from two experiments). As to conditions: partners not purified.

B1: mouse RBPJ, wild type (natural protein)
chain: not shown
notes: RBPJ, Mus musculus, full-length protein in pJG vector; This is the yeast construct, not the Su(H) exon 1-RBPJ fusion of the flies; also called RBPJ^wt; murine RBPJ; source: yeast two-hybrid fusion (EGY48 yeast, pJG4-5 vector)
For B1, the “interaction strength relative to that between H and Su(H)” value is around 40%.
